# Measured values published in patent US20190092852A1 (Genentech, published 2019).
# Read-outs that look alike come from different tables or passages of the source.
# T1: biotinylated cyno IL-33 (cynomolgus monkey, UniProt A0A2K5W3I1 112-269, biotin-labeled with EZ-LINK NHS-PEG4-Biotin)
# T1 construct: also called biotin-cyIL-33
# T1 sequence: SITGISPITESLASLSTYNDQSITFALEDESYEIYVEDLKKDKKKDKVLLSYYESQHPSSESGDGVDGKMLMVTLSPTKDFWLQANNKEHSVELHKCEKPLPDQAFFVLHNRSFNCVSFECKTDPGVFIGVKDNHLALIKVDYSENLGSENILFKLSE
# T2: biotinylated human IL-33 (human, UniProt O95760 112-270, biotin-labeled with EZ-LINK NHS-PEG4-Biotin)
# T2 construct: also called biotin-huIL-33
# T2 sequence (looked up): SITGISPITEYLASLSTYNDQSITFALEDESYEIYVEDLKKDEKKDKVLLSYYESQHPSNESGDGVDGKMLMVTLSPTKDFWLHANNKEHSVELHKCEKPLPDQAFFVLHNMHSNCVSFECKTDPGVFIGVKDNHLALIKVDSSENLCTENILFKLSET
# T3: human ST2L on HEK-BLUE IL-33/IL-1beta cells (human, UniProt Q01638 19-556)
# T3 sequence: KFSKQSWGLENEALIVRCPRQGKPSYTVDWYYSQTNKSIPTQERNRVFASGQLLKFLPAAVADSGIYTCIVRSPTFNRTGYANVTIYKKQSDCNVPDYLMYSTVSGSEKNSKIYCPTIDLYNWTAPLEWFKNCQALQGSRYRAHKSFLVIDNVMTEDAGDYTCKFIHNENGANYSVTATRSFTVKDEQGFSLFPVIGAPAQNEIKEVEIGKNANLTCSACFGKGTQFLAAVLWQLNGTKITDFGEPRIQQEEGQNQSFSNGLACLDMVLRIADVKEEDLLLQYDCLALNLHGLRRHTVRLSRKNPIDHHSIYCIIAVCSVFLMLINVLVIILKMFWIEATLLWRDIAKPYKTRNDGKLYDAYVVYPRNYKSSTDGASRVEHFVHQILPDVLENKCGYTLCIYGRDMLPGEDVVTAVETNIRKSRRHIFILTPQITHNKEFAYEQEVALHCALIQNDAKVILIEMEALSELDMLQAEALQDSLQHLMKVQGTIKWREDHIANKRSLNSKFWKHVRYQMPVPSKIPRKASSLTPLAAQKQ
# B1: human IL-33 (R&D Systems, #3625-IL-010/CF) (ligand, UniProt O95760 112-270, looked up)
# chain: SITGISPITEYLASLSTYNDQSITFALEDESYEIYVEDLKKDEKKDKVLLSYYESQHPSNESGDGVDGKMLMVTLSPTKDFWLHANNKEHSVELHKCEKPLPDQAFFVLHNMHSNCVSFECKTDPGVFIGVKDNHLALIKVDSSENLCTENILFKLSET
# B2: cyno IL-33 N-His (ligand)
# chain: MGSSHHHHHHSSGLVPRGSHMSITGISPITESLASLSTYNDQSITFALEDESYEIYVEDLKKDKKKDKVLLSYYESQHPSSESGDGVDGKMLMVTLSPTKDFWLQANNKEHSVELHKCEKPLPDQAFFVLHNRSFNCVSFECKTDPGVFIGVKDNHLALIKVDYSENLGSENILFKLSET
# How the values were obtained:
# [1] = biological target: B1; assay: SPR Biacore T200, 25 C
# Procedure, shortened: (§1)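 Antibodies captured via anti-Fc on CM5 chip; IL-33 injected at 3.7–100 nM (three-fold series), 4 min association, 10 min dissociation, 30 μl/min, ADA pH 7.4 buffer with 0.15 M NaCl, EDTA, Tween-20, at 25 °C or 37 °C. KD = koff/kon from 1:1 Langmuir fit; t1/2 = ln(2)/(60*koff).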
# [2] = biological target: B2; assay: SPR Biacore T200, 25 C
# Procedure, shortened: as §1
# [3] = biological target: B1; assay: SPR Biacore T200, 37 C
# Procedure, shortened: as §1
# [4] = biological target: B2; assay: SPR Biacore T200, 37 C
# Procedure, shortened: as §1
# [5] = biological target: B1; assay: cell-based or functional assay
# [6] = biological target: B1; assay: cell-based or functional assay; remark: listed apart in the source
# [7] = biological target: B1; assay: cell-based or functional assay; remark: listed apart in the source
# [8] = biological target: B1; assay: cell-based or functional assay; remark: listed apart in the source
# [9] = biological target: B1; assay: cell-based or functional assay; remark: listed apart in the source
# [10] = biological target: B1; assay: cell-based or functional assay; remark: listed apart in the source
# [11] = biological target: T1, biotinylated cyno IL-33; assay: competitive ELISA, biotin-cyIL-33 to coated hST2-Fc
# Procedure, shortened: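 Recombinant human ST2-Fc coated at 1 μg/ml; biotin-IL-33 (final 20 pM human, 45 pM cyno) premixed 1 h RT with serially diluted antibody (0–300 nM final), then bound to ST2-Fc 1 h RT. Streptavidin-polyHRP/TMB, A450; IC₅₀ from four-parameter fit, max blocking relative to IL-33-alone signal minus background.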
# [12] = biological target: T2, biotinylated human IL-33; assay: competitive ELISA, biotin-huIL-33 to coated hST2-Fc
# Method: The ability of the anti-IL-33 antibody 10C12.38.H6.87Y.58I IgG4 and each anti-IL-33 antibody listed in Table 5 (RG1-RG20) to block either human IL-33 or cyno IL-33 binding to human ST2 receptor was tested in a competitive binding ELISA. Briefly, 1 μg/ml of recombinant human ST2-Fc chimera protein prepared in coating buffer (50 mM sodium carbonate, pH 9.6) was coated on a 384-well MAXISORP® plate (Nalgene Nunc International; Rochester, N.Y.) and incubated overnight at 4° C. On the next day, non-specific binding was blocked with PBS containing 0.5% (w/v) solution of bovine serum albumin (BSA). Fixed concentrations of biotinylated human or cyno IL-33 prepared in assay buffer (25 mM PBS, pH 7.2, 0.1% BSA, 0.05% TWEEN®-20) were mixed with an equal volume of serially-diluted anti-IL-33 antibodies or assay buffer alone and incubated for 1 h at room temperature. The final assay concentrations of biotinylated human IL-33 or cyno IL-33 were 20 pM and 45 pM, respectively, and the final assay concentration of each antibody ranged from 0-300 nM. The pre-mixed solutions were added to the ST2-Fc coated plate and incubated for 1 h at room temperature. The binding of biotinylated IL-33 to coated ST2-Fc was detected by the sequential addition of Streptavidin Poly-HRP80 (Fitzgerald; Buckinghamshire, UK) and 3,3′,5,5′-tetramethyl benzidine (TMB) Microwell Peroxidase Substrate System (KPL; Gaithersburg, Md.). The absorbance (450 nm) was recorded using a […] ASCENT® plate reader (Thermo Scientific; Rockford, Ill.). The binding activity (%) of biotin-IL-33 to ST2 in the presence of anti-IL-33 was plotted as a function of antibody concentration. The data generated were fitted to a four-parameter equation to determine IC₅₀ values for each antibody (FIGS. 25A and 25B) using Prism software (Graphpad Software; La Jolla, Calif.). The maximum blocking (%) of each antibody was calculated as the ratio of the reduction in signal measured in the presence of antibody relative to the difference between the signal with IL-33 alone and background measurements.
# [13] = biological target: T3, human ST2L on HEK-BLUE IL-33/IL-1beta …; assay: cell-based or functional assay
# [14] = biological target: T3, human ST2L on HEK-BLUE IL-33/IL-1beta …; assay: cell-based or functional assay; remark: listed apart in the source
binder,measurement,setting,value
"H4H9640P (antibody, IgG4, V domains shown, also called RG6) VH: QVQLQESGPGLVKPSETLSLTCTVSGGSISSYYWSWIRQPPGKGLELIGYIYYSGSTNYNPSLKSRVTISVDTSKNHFSLKLSSVTAADTAVYYCARSQYTSSWYGSFDIWGQGTMVTVSS VL: DIQMTQSPSSVSASVGDRVTITCRASQGISTWLAWFQQKPGKAPKLLIYAASTLQGGVPSRFSGSGSGPEFTLTISSLQPEDFATYYCQQANSFPWTFGQGTKVEIK",Kd,[1],0.549 nM
same,koff,[1],0.000438 s⁻¹
same,kon,[1],797000 M⁻¹ s⁻¹
same,t1/2,[1],26 min
same,Kd,[2],2.17 nM
same,koff,[2],0.000528 s⁻¹
same,kon,[2],244000 M⁻¹ s⁻¹
same,t1/2,[2],22 min
same,Kd,[3],0.359 nM
same,koff,[3],0.000626 s⁻¹
same,kon,[3],1.74e+06 M⁻¹ s⁻¹
same,t1/2,[3],18 min
same,Kd,[4],4.2 nM
same,koff,[4],0.0392 s⁻¹
same,kon,[4],9.34e+06 M⁻¹ s⁻¹
same,t1/2,[4],0 h
same,"IC50; SEAP reporter (OD 620), HEK-BLUE IL-33/IL-1beta cells, 10 pM hIL-33",[5],6.1e-10 M
same,"IC50; IFN-gamma ELISA, primary human NK cells, 260 pM hIL-33 + IL-12",[6],2.4e-09 M
same,"IC50, IL-33-induced phospho-p38 in primary human basophils, 500 pM hIL-33",[7],3.9e-13 M
same,IC50 (read off the curve),[8],~0.0004 nM
same,"Ph-p38 MFI at 0.4 nM Ab (500 pM human IL-33, primary basophils)",[9],99 MFI
same,"Ph-p38 MFI at 2 nM Ab (500 pM human IL-33, primary basophils)",[10],52 MFI
same,IC50,[11],45 nM
same,Maximum Blocking,[11],25%
same,IC50,[12],0.19 nM
same,Maximum Blocking,[12],80%
B1,"EC50 (SEAP reporter OD 620, HEK-BLUE IL-33/IL-1beta cells)",[13],0.0055 nM
B2,"EC50 (SEAP reporter OD 620, HEK-BLUE IL-33/IL-1beta cells)",[14],0.004 nM
